We go through five proteins from article PMC12548936, “Microfluidic‐Assisted Evolution of a Robust NAD^+‐Dependent Enzyme with Improved Isobutanol Tolerance at Elevated Temperatures” (Chemsuschem, 2025).

Substrate in series [1]: NC(=O)c1ccc[n+]([C@@H]2O[C@H](COP(=O)(O)OP(=O)(O)OC[C@H]3O[C@@H](n4cnc5c(N)ncnc54)[C@H](O)[C@@H]3O)[C@@H](O)[C@H]2O)c1
As to the kind of experiment: photometric ALDH activity assay, Michaelis-Menten fit. It is filed as biochemical, Herbaspirillum seropedicae. The note with it: co-substrate 5 mM D-glyceraldehyde, 100 mM HEPES, varied: cofactor.

Substrate in the series “purified protein”: O=C[C@H](O)CO
Kind of series: purified protein. The note with it: co-substrate 5 mM NAD+, 100 mM HEPES.

The mark [2] stands for this setting: wild type, Chis tag, pH 7.5, 30 °C, 30.0 °C.
[3] abbreviates: FIN5, GS-linker Nhis tag, pH 7.5, 50 °C, 50.0 °C.
The mark [4] stands for this setting: FIN3, GS-linker Nhis tag, pH 7.5, 50 °C.
The mark [5] stands for this setting: FIN3, GS-linker Nhis tag, pH 7.5, 50 °C, 50.0 °C.
The mark [6] stands for this setting: FIN4, GS-linker Nhis tag, pH 7.5, 50 °C.
[7] abbreviates: FIN4, GS-linker Nhis tag, pH 7.5, 50 °C, 50.0 °C.
Setting [8] is: StEP template, GS-linker Nhis tag, pH 7.5, 50 °C.
[9] abbreviates: StEP template, GS-linker Nhis tag, pH 7.5, 50 °C, 50.0 °C.

Where a chain is given by its changes, count along the chain named. In names and notes the source's numbering stands.

B1: HsALDH (HsALDH_Chis; NAD+-dependent aldehyde dehydrogenase / glyceraldehyde dehydrogenase GADH) (Herbaspirillum seropedicae SmR1) (protein)
chain: MYKDVQLFINGEWTASASGRTIDVINPATEEVIGKIAHADRADLDRALEAASKGFETWRNMSAFERSKIMRRAADLLRERAEEVARLMTMEQGKPLAEAKMETLGAADTIDWFAEEARRTYGRLVPARVPGAYQMVIKEPVGPVAAFTPWNFPLNQVVRKLSAALAAGCSIIVKAPEETPASPAELIRAYADAGVPAGVINLVYGVPAEISEYLIPHPVIKKISFTGSTPVGKQLAALAGQHMKRATMELGGHAPAMVFDDADVDVAAKMLATAKFRNAGQVCVSPTRFLVQKGVFNAFVDKFVTYAEQLKVGNGLEAGITMGPVANKRRIPALEALIDDAVSQGAQLRTGGKRIGNKGYFFQPTVLTNLPLQARAMNEEPFGPLALINSFETLDEVITEANRLPYGLAAYAFAKSAHTKHALAARVESGMLTINHLGLALPELPFGGIKDSGYGSEGGTEAIEAYINTKLVTQLDV
notes: recombinant, E. coli BL21(DE3); wild type with C-terminal His tag (Chis); models show dimerizing chains
With B1, the Km (commonly the substrate concentration at which the rate is half of its maximum) in series [1] (wild type, Chis tag, pH 7.5, 30 °C) amounted to 590 µM. Further, in “purified protein” (setting [2]), the Km came out at 13000 ± 400 µM and the turnover number (kcat) (usually the maximal rate divided by the concentration of active sites) stood at 68.6 ± 0.8 s⁻¹.

B2: HsALDH (HsALDH_Chis; NAD+-dependent aldehyde dehydrogenase / glyceraldehyde dehydrogenase GADH) (Herbaspirillum seropedicae SmR1; … (protein)
chain: B1 chain with I36V, F147L, V158A, K221R, V284I, L432M
notes: as for B1
With B2, the Km in series [1] (FIN5, GS-linker Nhis tag, pH 7.5, 50 °C) came out at 340 µM. For the same protein, in the series “purified protein” (setting [3]), the Km was found to be 3500 ± 500 µM and the catalytic constant (kcat) was determined as 54.8 ± 1.9 s⁻¹.

B3: HsALDH (HsALDH_Chis; NAD+-dependent aldehyde dehydrogenase / glyceraldehyde dehydrogenase GADH) (Herbaspirillum seropedicae SmR1; F147L/I36V/K221R/V158A/V284I) (protein)
chain: B1 chain with I36V, F147L, V158A, K221R, V284I
notes: as for B1
B3: the Michaelis constant (Km) in series [1] (setting [4]) is 420 ± 20 µM; in the series “purified protein” (setting [5]), 3300 ± 400 µM. Besides, the catalytic constant (kcat) (in series [1] (setting [4]); in the series “purified protein” (setting [5])) was 46.9 ± 1.3 s⁻¹ in each case.

B4: HsALDH (HsALDH_Chis; NAD+-dependent aldehyde dehydrogenase / glyceraldehyde dehydrogenase GADH) (Herbaspirillum seropedicae SmR1; F147L/I36V/K221R/L432M/V284I) (protein)
chain: B1 chain with I36V, F147L, K221R, V284I, L432M
notes: as for B1
Turning to B4, the Km in series [1] (setting [6]) was 500 ± 60 µM; in the series “purified protein” (setting [7]), 7200 ± 800 µM. The turnover number (kcat) (in series [1] (setting [6]); in “purified protein” (setting [7])) was 46.6 ± 1.4 s⁻¹ throughout.

B5: HsALDH (HsALDH_Chis; NAD+-dependent aldehyde dehydrogenase / glyceraldehyde dehydrogenase GADH) (Herbaspirillum seropedicae SmR1; F147L/I36V/V284I) (protein)
chain: B1 chain with I36V, F147L, V284I
notes: as for B1
For B5, the Km turned out to be 510 ± 30 µM in series [1] (setting [8]) and 12700 ± 1200 µM in “purified protein” (setting [9]). Also, the catalytic constant (kcat) (in series [1] (setting [8]); in “purified protein” (setting [9])) was 66.1 ± 2.0 s⁻¹ throughout.
